# Source: the supplement of paper PMC9170038
# System: MS2 coat protein
# Test: apparent KD of MS2 coat protein, switch ON state; designed switch direction (-1 OFF switch, 1 ON switch): -1; higher = weaker reporter binding
# Conditions: FMN input: 0 or 200 uM; Eterna round: R93 (includes R88 designs)
# Procedure, shortened: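 Apparent KD is reported per design as the median of normalised binding-curve fits across its clusters. The RNA switches were made by on-chip transcription from Illumina sequencing clusters. SNAP-549-labelled MS2 coat protein was then added in twofold steps (0.7 or 1.5 nM to 3 µM; 0.8–1.5 h to 10–20 min per step) in 100 mM Tris-HCl pH 7.5, 80 mM KCl, 4 mM MgCl2, without or with constant ligand.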
row,Sequence,apparent KD of MS2 coat protein
1,AGGCGGGUAGGAUAUGCGUACUGACGGGAAAACUGAAUGGUACAUGAGGAUCACCCAUGUAGAAGGGCUCUGAA [Dora Explored 23 - Jieux - Exclusion 2],67.1 nM
2,AAAUAGCAAGGAUAUACAUGAGGAUCACCCAUGUGACCCAGGUAUGGCAUAGAAUAGAGUAGAAGGUGCAAAUA [Mod 4 of Ex 3 Tesla 8 - Jieux - Exclusion 3],132 nM
3,AAGAAGCAAGGAUAUACUAAAGAAAUGAAAAGAAAUAAAGAACAUGAGGAUCACCCAUGUAGAAGGUGCAAGAA [Webenre],50.4 nM
4,AACAUACAUGAGGAUCACCCAUGUCAGGAUAUGCCGGGUUAGAGCCAACUGAAAAAACGUAGAAGGGACGAAAA [Bilbo Confounded 7 - Jieux - Exclusion 1],110 nM
5,AAAAAGUGAGGAUAUACGCUGAGGAGUAGACACAACCAGGCGUAGAAGGCACAUGAGGAUCACCCAUGUCCAAA [EX4 Malc#11],26.1 nM
6,CUCUAGUCAGGAUAUGCAUGAAAUGAAGUGAAAGAAAAGAAGCAGAAGGGACAUGAGGAUCACCCAUGUUAGAA [EteRNA is fun!],29.6 nM
7,CUCAAGUAAGGAUAUCAAAGAAAAGAAGAGAAAGAAAAGAAUGAGAAGGUACAUGAGGAUCACCCAUGUAAGAA [EteRNA is fun!],35.2 nM
8,AAAAGGGCAGGAUAUGCGUACUCACGGGAAAGCUGGAUGGUACAUGAGGAUCACCCAUGUAGAAGGGCUAAAAA [Dora Explored 18 - Jieux - Exclusion 2],32.8 nM
9,GAAAAGCGAGGAUAUACAGAAAAAAAAACAAAAAAAGAAAAACAUGAGGAUCACCCAUGUAGAAGGCGCAAAAA [V1],25.9 nM
10,AGGGAGUGAGGAUAUACGAAAUAAAAAGAAGGAAAAAAAGAGUAGAAGGCACAUGAGGAUCACCCAUGUGAGAA [milkweed 12],20.7 nM
11,AAAAAGGCAGGAUAUGCAUACACACGAAAAAAAACGCUGGGACAUGAGGAUCACCCAUGUAGAAGGGCCAAAAA [Dora Explored 10 - Jieux - Exclusion 2],57.2 nM
12,AAGGUUCGAGGAUAUACAUAGAUACAGAUACAUGUAGACGUACAUGAGGAUCACCCAUGUAGAAGGCGAAUAUA [AJ 25],69.7 nM
13,"AGAUAGUCAGGAUAUACGAAAAUGUAAAAAGAAGUGAAGGGACAUGAGGAUCACCCAUGUAGAAGGGACUAGAA [74%, Web mod - With 5 less C's]",100 nM
14,AAGAAGCAAGGAUAUACAUGAGGAUCACCCAUGUAAAAGAAAGAGAAGGGAAAGAAAAGUAGAAGGUGCGAAAA [Ruby 71],20.2 nM
15,AAGAAUGGAGGAUAUACAUGAGGAUCACCCAUGUAAAAGAAAGAAGGGAAAGAGAAAAGUAGAAGGCCAAAGAA [Khuinefertemre Taharqa],26.5 nM
16,GAAAAGUCAGGAUAUACAGAUAAAAAAACGAAAAAAAAUCUGUAGAAGGGACAUGAGGAUCACCCAUGUAAAAG [Mat - Exclusion 4 - Mayanna - D101],47.3 nM
17,AGAAAACAUGAGGAUCACCCAUGUGAGGAUAUGCAAAUAUAUACGAAAGAUUAUAAAAGCAGAAGGCACAAAAG [Meechl MS2 Ex1],35.8 nM
18,AGAGGACAUGAGGAUCACCCAUGUGAGGAUAUGCACAACUAAGGACAAGAUCGCUAUAGCAGAAGGCACGUACU [JR_EXc001_Sub809],39.3 nM
19,AAGAAGUGAGGAUAUCGUGCUCGUCACAAAAGUGAUGAGUACGAGAAGGCACAUGAGGAUCACCCAUGUAAAGA [Opal 36],40.1 nM
20,AAUAACUCAGGAUAUACUAAAGAAAUGAAAAGAAAUAAAGAACAUGAGGAUCACCCAUGUAGAAGGGAGAAUAA [Wazad],94.2 nM
21,AAAAAACAUGAGGAUCACCCAUGUGAGGAUAUGCGAAAUAAAAAUAAAAUAAUAAAAAGCAGAAGGCACAAAAA [Amethyst 64],30.1 nM
22,GAAACUAGAGGAUAUACGAACAUGUCAAAAGACGUGAAGGGACAUGAGGAUCACCCAUGUAGAAGGCUAGAAAG [Mat - Exclusion 2 - JL mod - D100],39.5 nM

row,Sequence,apparent KD of MS2 coat protein
1,"AAAAAGAGAGGAUAUACAUGAGGAUCACCCAUGUGACAUUAAAUAAAUAAAAUAAAAUGUAGAAGGCUCAAAAA [65%, Moding Exclusion3-cac2, 22]",38.6 nM
2,CUCUAGUUAGGAUAUCCAAGAAAAGAAAAGAAAGAAAAGAAGGAGAAGGAACAUGAGGAUCACCCAUGUAAGAA [EteRNA is fun!],27.8 nM
3,GAAAAGUCAGGAUAUGCAGAUAAAAAAACGAAAAAAAAUCUGCAGAAGGGACAUGAGGAUCACCCAUGUAAAAA [Mat - Exclusion 4 - Mayanna - D109],45.6 nM
4,AUAAAGUCAGGAUAUGUAAAAAUAACGAAAGUUAUAAAUAAACAGAAGGGACAUGAGGAUCACCCAUGUGGAAU [Meechl MS2 EX4 62% 3],54.2 nM
5,AAAAAACAUGAGGAUCACCCAUGUGAGGAUAUCCAGAAUGGAAUAAAAUAACAAGAAAGGAGAAGGCACAAAAA [Ex 1 May 37],67.7 nM
6,AACAAGUCAGGAUAUUCGACAAGUAAAUAAGUAAAUCAAAAGAAGAAGGGACAUGAGGAUCACCCAUGUAAAUA [JR_Exc004_Sub401],32.5 nM
7,AAAAAGCAAGGAUAUACAUGAGGAUCACCCAUGUGAAAAAAAACAAUAAGAAGAAAAAGUAGAAGGUGCAAAAA [Ex 3 Tesla 1],24 nM
8,AAGAAGUGAGGAUAUACAUGAGGAUCACCCAUGUUAAGAAGAAUUUUAGAGAAAGAAGGUAGAAGGCACAAGAA [JR_Exclusion3_Sub5],34.7 nM
9,AGAAACCUAGGAUAUACAUGAGGAUCACCCAUGUAAAGAAAGAAGGGAGCCACAAGAAGUAGAAGGAGGAAGAA [JR_Exc003_Sub005],16.9 nM
10,AAGGGACAUGAGGAUCACCCAUGUGAGGAUAUGAUGCGAAUAAAGAAAUAAUAAAGCAUCAGAAGGCACACCAA [Mat - Exclusion 1 - Eli mod - D67],82.4 nM
11,AAGAACUGAGGAUAUACAUGAGGAUCACCCAUGUAAAAGAAAGAGGGAAAAGAGAAAAGUAGAAGGCAGAAGAA [Berenice II],24.9 nM
12,CUCUUGUGAGGAUAUCUAAGAAAAGAAGAGAAAGAAAAGAAAGAGAAGGCACAUGAGGAUCACCCAUGUAAGAA [EteRNA is fun!],29 nM
13,GUGUACAGAGGAUAUAUAUGAGCUAGGAAACUAGCAAGAUCACAUGAGGAUCACCCAUGUAGAAGGCUGUACAC [Ex2: 735],108 nM
14,AAGGUAUAAGGAUAUACAUAGAUACAGACACAUGUUCAAGUACAUGAGGAUCACCCAUGUAGAAGGUAUAUAUA [AJ 13],29.2 nM
15,AAGAAACAUGAGGAUCACCCAUGUGAGGAUAUCUAAAAGAAAAGAAAAGAAAGAAGAAGGAGAAGGCACAAAGG [H—],34.3 nM
16,CUAAAGCGAGGAUAUACAAUAAAAGGGAAUAAGGGAAAAAAACAUGAGGAUCACCCAUGUAGAAGGCGCCGAAA [Ex 2 #1],25.6 nM
17,AAGAACUAAGGAUAUACAAAAUAAAAGAAAAGAAAGAAAGAACAUGAGGAUCACCCAUGUAGAAGGUAGAAGAA [Khakheperre Senusret II],19.9 nM
18,"AGAAAACAUGAGGAUCACCCAUGUCAGGAUAUCGAUGUCCAAAAAAAAGUGCGGGACUCGAGAAGGGACUUGGG [Mod of Erbelaed v.2 (favor state 2,lowered kcal by 2.7)]",27.2 nM
19,AAGAAGCUAGGAUAUACUAAAGAAAUGAAAAGAAAUAAAGAACAUGAGGAUCACCCAUGUAGAAGGAGCAAGAA [Djefare],42.3 nM
20,ACCUGACAUGAGGAUCACCCAUGUCAGGAUAUGUACAUCAGGAAAAAAAAACUGAUGUACAGAAGGGACAAGGG [Design 6: Super Stable - A-U mutation 2],17.8 nM
21,AAAUACCAAGGAUAUACAUGAGGAUCACCCAUGUACAAACCCGUGGAACGGAUCGUUGGUAGAAGGUGGAAAUA [Isleusso],13.4 nM
22,AGCUAGUCAGGAUAUACGAACAUGUCAAAAGACGUGAAAGAACAUGAGGAUCACCCAUGUAGAAGGGACUAGCA [Mat - Exclusion 2 - JL-Eli mod - D48],19.4 nM
